Test results taken from the nanobody polyreactivity screen of Harvey et al. (2022).

Test: yeast display, Sf9 membrane polyspecificity reagent, FACS + sequencing; frameworks hold sequencing errors
Procedure, shortened: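 Synthetic nanobody libraries on Saccharomyces cerevisiae BJ5465 were galactose-induced for 36–48 hours, stained 1 hour at 4 °C with 10% biotinylated, detergent-solubilized Sf9 membrane reagent and enriched on streptavidin microbeads. FACS then separated cells into low and high (top ~1%) gates by anti-HA (expression) and streptavidin (reagent binding) fluorescence. Genes were colony-PCR amplified, MiSeq 2 × 250 sequenced and CDR-length filtered. A clone's polyreactivity label is that of its gate of origin.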

Sequence: QVQLVESGGGLVQAGGSLRLSCAASGSIFRYYAMGWYRQAPGKERELVAAISGDSGRTYYADSVKGRFTISRDNAKNTVYFQMNSLKPEDTAVYYCNARVAYRYRTGYDYWGQGTQVTVSS
- polyreactivity (PSR sort gate): high polyreactivity

Sequence: QVQLVESGGGLVQAGGSLRLSCAASGSIFRYYAMGWYRQAPGKERELVAAITASGGRTHYADSVKGRFTISRDNAKNTVYLQLNSLKLEDTAVYYCAADLYYAWYWKQHYDYWGQGTQVTVSS
- polyreactivity (PSR sort gate): high polyreactivity

Sequence: QVQLVESGGGLVQAGGSLRLSCAASGSIFRYYAMGWYRQAPGKERELVADITSSGGSTYYADSVKGRFTISRDNAKNTVYLQMNSLKPEDTAVYYCASLYWFYVYPFTEYDYWGQGTQVTVSS
- polyreactivity (PSR sort gate): low polyreactivity

Sequence: QVQLVESGGGLVQAGGSLRLSCAASGSIFRYYAMGWYRQAPGKERELVARISSGGSTYYADSVKGRFTISRDNAKNTVYLQMNSLKPEDTAVYYCNAGAPARYWWEGDYWGQGTQVTVSS
- polyreactivity (PSR sort gate): high polyreactivity

Sequence: QVQLVESGGGLVQAGGSLRLSCAASGSIFRYYAMGWYRQAPGKERELVARISWRAGSTYADSVKGRFTISRDNAKNTVYLQMNSLKPEDTAVYYCNADAHKYSWVGTSEYEYWGQGTQVTVSS
- polyreactivity (PSR sort gate): high polyreactivity

Sequence: QVQLVESGGGLVQAGGSLRLSCAASGSIFRYYAMGWYRQAPGKERELVAVISSGGTRTNYADSVKGRFTISRDTAKNTVYLQMNSLKPEDTAVYYCAAGYLSLYGGGYWGQGTQVTVSS
- polyreactivity (PSR sort gate): high polyreactivity

Sequence: QVQLVESGGGLVQAGGSLRLSCAASGSIFRYYAMGWYRQEPGKERELVAAISWDGGTTYYADSVKGRFTISRDNAKNTVYLQMNSLKPEDTGVYYCNVEFPLSSYGYDYWGQGTQVTVSS
- polyreactivity (PSR sort gate): low polyreactivity

Sequence: QVQLVESGGGLVQAGGSLRLSCAASGSIFRYYVMGWYRQAPGKERELVATISRSGGRTYYADSVKGRFTISRDYAKNTVYLQMNSLKPEDTAVYYCARTYGGYPTTYDYWGQGTQVTVSS
- polyreactivity (PSR sort gate): high polyreactivity

Sequence: QVQLVESGGGLVQAGGSLRLSCAASGSIFSANAMGWYRQAPGKERELVASITGDGSTNYADSVKGRFTISRDNAKNTVYLQMNSLKPEDTAVYYCAADIGSWYDYWGQGTQVTVSS
- polyreactivity (PSR sort gate): low polyreactivity

Sequence: QVQLVESGGGLVQAGGSLRLSCAASGSIFSAYAMGWYRQAPGKERELVAAISDSGDSTYYADSVKGRFTISRDNAKNTVYLQMNSLKPEDTAVYYCAAESPKWGQGTQVTVSS
- polyreactivity (PSR sort gate): low polyreactivity

Sequence: QVQLVESGGGLVQAGGSLRLSCAASGSIFSAYAMGWYRQAPGKERELVAGISKRGGSTYYADSVKGRFTISRDNAKNTVYLQMNSLKPEDTAVYYCNAARYTVVTKLFDYWGQGTQVTVSS
- polyreactivity (PSR sort gate): high polyreactivity

Sequence: QVQLVESGGGLVQAGGSLRLSCAASGSIFSAYGMGWYRQAPGKERELVAAITRSGGSTYYADSVKGRFTISRDNAKNTVYLQMNSLKPEDTAVYYCAAKSIIRPYAPRRDDMDYWGQGTQVTVSS
- polyreactivity (PSR sort gate): low polyreactivity

Sequence: QVQLVESGGGLVQAGGSLRLSCAASGSIFSDNAMGWYRPAPGKESELVAAITYSGGRTSYADSVKGRFTISRDNAKNTVYLQMNSLKPEDTAVYYCNAEYYYWNREGDYWGQGTQVTVSS
- polyreactivity (PSR sort gate): low polyreactivity

Sequence: QVQLVESGGGLVQAGGSLRLSCAASGSIFSDNAMGWYRQAPGKERDLVAAISWIGDSTDYADSVKGRFTISRDNAKNTVYLQMNSLKPEDTAVYYCAADAKVVSPRYRANDIGMFYWGQGTQVTVSS
- polyreactivity (PSR sort gate): low polyreactivity

Sequence: QVQLVESGGGLVQAGGSLRLSCAASGSIFSDNAMGWYRQAPGKERELVAAISWIGDSTDYADSVKGRFTISRDNAKNTVYLQMNSLKPEDTAVYYCAGDAKVVSPRYRANDIGMYYWGQGTQVTVSS
- polyreactivity (PSR sort gate): low polyreactivity

Sequence: QVQLVESGGGLVQAGGSLRLSCAASGSIFSEYAMGWYRQAPGKERELVAAINDGGGSTYYADSVKGRFTISRDNAKNTVYLQMNSLKPEDTAVYYCAAETVRWWWLYDYWGQGTQVTVSS
- polyreactivity (PSR sort gate): high polyreactivity

Sequence: QVQLVESGGGLVQAGGSLRLSCAASGSIFSFNAMGRSRQAPGKERELVASITSGGSTNYADSVKGRFTISRDNAKNTVYLQMNSLKPEDTEVYYCNARFPYLSRWLVRGLASYDYWGQGTQVTVSS
- polyreactivity (PSR sort gate): low polyreactivity

Sequence: QVQLVESGGGLVQAGGSLRLSCAASGSIFSFNVMGWYRQAPGKEREMVATITGGGSTNYADSVKGRFTISRDNAKNTVYLQMNSLKPEDTAVYYCNKRNRWTPFYTYDYWGQGTQVTVSS
- polyreactivity (PSR sort gate): low polyreactivity

Sequence: QVQLVESGGGLVQAGGSLRLSCAASGSIFSFYAMGSYRQAPGKERELVAAISWSGGSTYYADSVKGRFTISRDNAKNTVYLLMNSLKPEDTAVYYCAREKAVSYYGYDHWGQGTQVTVSS
- polyreactivity (PSR sort gate): low polyreactivity

Sequence: QVQLVESGGGLVQAGGSLRLSCAASGSIFSFYAMGWYRQAPGKEREFVAAITISDDSTYYADSVKGRFTISRDNAKNTVYLQMNSLKPEDTAVYYCNARYLSWYFKYLYDYWGQGTQVTVSS
- polyreactivity (PSR sort gate): low polyreactivity

Sequence: QVQLVESGGGLVQAGGSLRLSCAASGSIFSGNAMGWYRQAPGKKGVGCRYYSCWFYDYADSVKGRFTISRDNAKNTVYLQMNSLKPEDTAVYYCAKSNYVRSEFNYWGQGTQVTVSS
- polyreactivity (PSR sort gate): low polyreactivity

Sequence: QVQLVESGGGLVQAGGSLRLSCAASGSIFSGNTMGWYRQAPGKERELVAAISGRGSNTYYADSVKGRFTISRDNAKNTVYLQMNSLKPEDTAVYYCAAPWVVRRTAYDYWGQGTQVTVSS
- polyreactivity (PSR sort gate): high polyreactivity

Sequence: QVQLVESGGGLVQAGGSLRLSCAASGSIFSGYAMGWYRQAPGKERELVAAISGSGGSTFYADSVKGRFTISRDNAKNTVYLQMNSLKPEDTAVYYCAARRIAPYGRYDYWGQGTQVTVSS
- polyreactivity (PSR sort gate): low polyreactivity

Sequence: QVQLVESGGGLVQAGGSLRLSCAASGSIFSGYAMGWYRQAPGKERELVAAITWRAASTYYADSVKGRFTISRDNAKNTVYLQMNSLKPEDTAVYYCAKEGGPKPAFYYWGQGTQVTVSS
- polyreactivity (PSR sort gate): low polyreactivity

Sequence: QVQLVESGGGLVQAGGSLRLSCAASGSIFSGYAMGWYRQAPGKESELVAAISGSGGSTFYADSVKGRFTISRDNAKNTVYLQMISLKPEDTAVYYCAARRIAPFGRYDYWGQGTQVTVSS
- polyreactivity (PSR sort gate): low polyreactivity

Sequence: QVQLVESGGGLVQAGGSLRLSCAASGSIFSHKVMGWYRQAPGKERELVAAITYRGGSTYYADSVKGRFTISRDNAKNTVYLQMNSRKPEDTAVYYCAALNEVSTYHGFDYWGQGTQVTVSS
- polyreactivity (PSR sort gate): low polyreactivity

Sequence: QVQLVESGGGLVQAGGSLRLSCAASGSIFSIYAMGWYRQAPGKERELVAAISWNGGSTYYADSVKGRFTISRDNAKNTVYLQMNSLKPEDTAVYYCAVDEGPTKVRFGYWGQGTQVTVSS
- polyreactivity (PSR sort gate): high polyreactivity

Sequence: QVQLVESGGGLVQAGGSLRLSCAASGSIFSLYAMGWYRPAPGKERELVAAISDGTGTNYADSVKGRFTISRDNAKNTVYLQMNSLKPVDTAVYYCATETYWYLPYYGDVEGNYWGQGTQVTVSS
- polyreactivity (PSR sort gate): low polyreactivity

Sequence: QVQLVESGGGLVQAGGSLRLSCAASGSIFSLYAMGWYRPAPGKERELVAGISRSGGSTYYADSVKGRFTISRDNAKNTVYLQMNSLKPEDTAVYYCAARVKVRDFKGYYWGQGTQVTVSS
- polyreactivity (PSR sort gate): high polyreactivity

Sequence: QVQLVESGGGLVQAGGSLRLSCAASGSIFSNAMGWYRQAPGKERELVAAITGRGGRTYYADSVKGRFTISRDNAKNTVFLQMNSLKPEDTAVDYCARDSPWSSRYRYRAFDYWGQGTQVTVSS
- polyreactivity (PSR sort gate): high polyreactivity

Sequence: QVQLVESGGGLVQAGGSLRLSCAASGSIFSNYAMGWYRQAPGKERELVAAITLSSGGTYYADSVKGRFTISRDNAKNTVYFQMNSLKPEDTAVYYCAAQYKYFIHRYYYWGQGTQVTVSS
- polyreactivity (PSR sort gate): high polyreactivity

Sequence: QVQLVESGGGLVQAGGSLRLSCAASGSIFSNYAMGWYRQAPGKERELVAAITLSSGGTYYADSVKGRFTISRDNAKNTVYLQMNSLKPEDTAVYYCAAQYKYFKHRYYYWGQGTQVTVSS
- polyreactivity (PSR sort gate): high polyreactivity

Sequence: QVQLVESGGGLVQAGGSLRLSCAASGSIFSQYAMGWYRQAPGKERELVAAISSSGDSTNYADSVKGRFTISRDNAKNTVYLQMNSLKPEDTAVYYCNADTYWYRDSRYDYWGQGTQVTVSS
- polyreactivity (PSR sort gate): low polyreactivity

Sequence: QVQLVESGGGLVQAGGSLRLSCAASGSIFSQYLMVWYRQAPGKERELVAAISWSGGHTYYADSVKGRFTISRDNAKNTVYLQMNSLKPEDTAVYYCATVPRKTPGNAELDYWGHGTQVTVSS
- polyreactivity (PSR sort gate): high polyreactivity

Sequence: QVQLVESGGGLVQAGGSLRLSCAASGSIFSQYVMGWYRQAPGKERELVAAISSGGITYYADSVKGRFTISRDNAKNTVYLQMNSLKPEDTAVYYCNKTSWYQYGYWGQGTQVTVSS
- polyreactivity (PSR sort gate): low polyreactivity

Sequence: QVQLVESGGGLVQAGGSLRLSCAASGSIFSRYAMGWYRQAPGKERELVAAITSSGGRTYYADSVKGRFTISRDNAKNTVYLQMNSLKPEDTAVYYCAADVRTPSEGYDYWGQGTQGTVSS
- polyreactivity (PSR sort gate): high polyreactivity

Sequence: QVQLVESGGGLVQAGGSLRLSCAASGSIFSRYAMGWYRQAPGKERELVAGISQRGGSTNYADSVKGRFTISRDNAKNTVYLQMNSLKPEDTAVYYCAARRITVWGYNPAYGYRFDYWGQGTQVTVSS
- polyreactivity (PSR sort gate): high polyreactivity

Sequence: QVQLVESGGGLVQAGGSLRLSCAASGSIFSSNAMGWSRQAPGKERELVASIRRGGSTYYADSVKGRFTISRDNAKNTVYLQMNSLKPEDTAVYDCARRYVPWYATYDHWGQGTQVTVSS
- polyreactivity (PSR sort gate): high polyreactivity

Sequence: QVQLVESGGGLVQAGGSLRLSCAASGSIFSSNVMGWYRQAPGKERELVAAITRRGSTTYYADSVKGRFTISRDNAKNTVYLQMNSLKPEDTAVYYCATKAKYGRQYLMDYWGQGTQVTVSS
- polyreactivity (PSR sort gate): high polyreactivity

Sequence: QVQLVESGGGLVQAGGSLRLSCAASGSIFSSYAMGGYRQAPGKEWELVAAISRRGGSTYYADSVKGRFTISRDNAKNTVYLQMNSLKPEDTAVYYCNADSAARKGWPIYGYWGQGTQVTVSS
- polyreactivity (PSR sort gate): high polyreactivity

Sequence: QVQLVESGGGLVQAGGSLRLSCAASGSIFSSYAMGWSRQAPGKEREFVAAISTGGRTYYADSVKGRFTISRDNAKNTVYLQMNSLKPEDTAVYYCAADGPLPHKVGTHTLDYWGQGTQVTVSS
- polyreactivity (PSR sort gate): low polyreactivity

Sequence: QVQLVESGGGLVQAGGSLRLSCAASGSIFSSYAMGWYRPAPWKESELVAAITYNGGSTFYADSVKGRFTISRDNAKNTVYLPMYCLKPVDTAVYYCAAEYVGYYVYTWLYDYWGQGTQVTVSS
- polyreactivity (PSR sort gate): high polyreactivity

Sequence: QVQLVESGGGLVQAGGSLRLSCAASGSIFSSYAMGWYRQAPGKERELVAAISGGGNTYYADSVKGRFTISRDNAKNTVYLQMNSLKPEDTAVYYCATDTYDPFHIEDDYWGQGTQVTVSS
- polyreactivity (PSR sort gate): low polyreactivity
